Source: patent US20150329642A1 (Genmab, published 2015)

Key:
[1] = molecular target: T1, human c-Met, membrane-bound on cells (human, UniProt P08581 25-1390); assay: cell-based or functional assay
[2] = molecular target: T1, human c-Met, membrane-bound on cells; assay: flow cytometry on A431 cells
Protocol: (§1) The binding of anti-c-Met antibodies and monovalent forms thereof (also termed “UniBody molecules” herein, see Example 5) to A431 cells expressing membrane-bound c-Met (purchased at ATCC, CRL-1555) was tested using flow cytometry (FACS Canto II, BD Biosciences). […] Binding of anti-c-Met antibodies and UniBody molecules was detected using a Phycoerythrin-conjugated goat-anti-human IgG antibody (Jackson). IgG1-5D5 was used as positive control antibody, and HuMab-KLH was used as isotype control antibody. EC₅₀ values were determined by means of non-linear regression (sigmoidal dose-response with variable slope) using GraphPad Prism V4.03 software (GraphPad Software, San Diego, Calif., USA).
(§2) Also maximum binding levels were unchanged between IgG1's and UniBody molecules. For antibodies 005, 006, 008, 035, 045 and 058, on the other hand, a more than 2-fold […] as well as a decrease in maximum binding level was observed when comparing IgG1 with their UniBody counterpart. This was most likely due to the […] (Kd) of these antibodies (see Example 14).

[3] = molecular target: T1, human c-Met, membrane-bound on cells; assay: flow cytometry on A431 cells (PE goat anti-human IgG); second panel
Protocol: as §1, §2

[4] = molecular target: T1, human c-Met, membrane-bound on cells; assay: flow cytometry on A431 cells (PE goat anti-human IgG); top panel
Protocol: as §1, §2

cMetECDHis = molecular target: T2, cMetECDHis (human, UniProt P08581 25-932, limits assumed, biotinylated in the cross-block ELISA of Example 17); assay: BLI (Octet); antibody captured, cMetECDHis in solution
T2 construct: Expressed in HEK-293F cells; also called soluble cMetECDHis; biotinylated cMetECDHis
Protocol: Antibody binding to cMetECDHis was analyzed by means of Bio-Layer Interferometry (BLI) technology on the Octet System (Fortebio, Menlo Park, USA). Anti-human IgG coated biosensors (Fc-specific) were used to capture anti-c-Met antibodies according to the procedure recommended by the manufacturer. cMetECDHis derived from HEK293 cells was loaded on top of the immobilized anti-c-Met antibodies by placing the loaded biosensor into a well containing 10 μg/mL cMetECDHis diluted in 10 times diluted kinetics buffer (Fortebio). The difference in reflection of light (AA, nm) of the biosensor surface due to the binding of cMetECDHis was measured in real time during approximately 10 minutes and was used by the Octet software (V4.0, Fortebio) to calculate the association constant (kₐ [1/M×s]). Next, the loaded biosensor was placed into a well containing only kinetics buffer (10 times diluted in PBS) to determine the dissociation constant (kd [1/s]). Kinetics analysis was performed to determine the affinity (KD [M]) using model 1:1 (langmuir). As a positive control, 0.2 μg/mL 5D5 IgG1 produced in HEK293 cells, was used.

[5] = molecular target: T3, recombinant human c-Met extracellular domain (R&D systems) (human, UniProt P08581 25-932); assay: competition ELISA, residual Europium-HGF signal at 615 nm at the lower plateau of the fit; sheet prints no competing mAb ~66000, no HGF-Europium ~600; lower panel
T3 construct: extracellular domain; Bought reagent; also called coated extracellular domain of c-Met; recombinant c-Met
Protocol: (§3) ELISA wells were coated overnight at 4° C. with 0.5 μg/mL recombinant human c-Met extracellular domain (R&D systems, Minneapolis, USA) diluted in PBS. Next, the ELISA wells were washed with PBST (PBS supplemented with 0.05% Tween-20 [Sigma-Aldrich, Zwijndrecht, The Netherlands]) and blocked for one hour at room temperature (RT) with PBST supplemented with 2% (v/v) chicken serum (Gibco, Paisley, Scotland). […] Mean fluorescence intensity at 615 nm was measured using the EnVision 2101 Multilabel reader (PerkinElmer) applying the following settings: Lance/Delfia dual mirror, emission filter 615, excitation filter 340 nm, delay time 400 μs, window 400 μs, 100 flashes, 2000 μs per cycle and bidirectional row-by-row reading. To determine IC₅₀ values, the binding curves were analyzed with non-linear regression (sigmoidal dose-response with variable slope, top-values constrained to a shared value for all data-sets) using GraphPad Prism V4.03 software (GraphPad Software, San Diego, Calif., USA).
(§4) FIG. 5 depicts representative examples of HGF binding inhibition curves of anti-c-Met antibodies for binding to the extracellular domain of recombinant human c-Met. 5D5 was used as positive control antibody. All anti-c-Met antibodies in the experiment shown were able to compete with Europium^{3±}-conjugated HGF for binding to recombinant c-Met. […] Without adding Europium³⁺-conjugated HGF, roughly ˜600 relative fluorescent units (RFU) were detected, indicating the signal when maximal inhibition is accomplished. When binding of Europium³⁺-conjugated HGF was not inhibited, approximately ˜66,000 RFU were detected.

[6] = molecular target: T3, recombinant human c-Met extracellular …; assay: competition ELISA on coated recombinant c-Met extracellular domain; blocked ligand Europium-conjugated HGF; column headed EC50 on the sheet, called IC50 in paragraph 270; lower panel
Protocol: as §3, §4

B1: Uni-1016-022-TE (other)
VH: QVQLVESGGGVVQPGRSLRLSCAASGFTFSSYAMHWVRQAPGKGLEWVAVISYDGSNKYYADSVKGRFTISRDNSKNTLYLQMNSLRAEDTAVYYCARELLWFGELWGYFDLWGRGTLVTVSS
VL: DIQMTQSPSSVSASVGDRVTITCRASQGISSWLAWYQHKPGKAPKLLIYAASSLQSGVPSRFSGSGSGTDFTLTISSLQPEDFATYYCQEASSFTWTFGQGTKVEIK
notes: also called UniBody molecule of antibody 022
- percentage inhibition of viable KP4 cells (Alamarblue) [1]: 57%
- fold change of EC50, UniBody molecule against IgG1 of the identical clone [2]: < 2 fold
- EC50 [3]: 1.66 nM

B2: Uni-1016-058-TE (other)
VH: EVQLVESGGGLVKPGGSLKLSCAASGFTFSDYYMYWVRQTPEKRLEWVATISDDGSYTYYPDSVKGRFTISRDNAKNNLYLQMSSLKSEDTAMYYCAREGLYYYGSGSYYNQDYWGQGTLVTVSS
VL: AIQLTQSPSSLSASVGDRVTITCRASQGLSSALAWYRQKPGKAPKLLIYDASSLESGVPSRFSGSGSGTDFTLTISSLQPEDFATYYCQQFTSYPQITFGQGTRLEIK
notes: also called UniBody molecule of antibody 058
- fold change of EC50, UniBody molecule against IgG1 of the identical clone [2]: > 2 fold
- EC50 [4]: 0.67 nM

B3: Uni-1016-006 (other)
VH: QVQLVQSGAEVKKPGSSVKVSCKASGGTFSSFGIGWVRQAPGQGLEWMGRIFPILGTANYAQMFQGRVTITADKSTSTAYMELTSLRSEDTAVYYCARDVGYDSADAFDIWGQGTMVTVSS
VL: DIQMTQSPSSLSASVGDRVTITCRASQGISSWLAWYQQKPEKAPKSLIYAASSLQSGVPSRFSGSGSGTDFTLTISSLQPEDFATYYCQQYNSYPPTFGQGTKVEIK
notes: also called UniBody molecule of antibody 006
- fold change of EC50, UniBody molecule against IgG1 of the identical clone [2]: > 2 fold
- EC50 [4]: 0.323 nM
- EC50 [3]: 13.9 nM

B4: anti-c-Met HuMab 096 (IgG1) (antibody, V domains shown)
VH: EVQLVQSGAEVKKPGESLKISCKGSGYSFTSYWIGWVRQMPGKGLEWMGIIYPGDSDTRYSPSFQGQVTISADKSISTAYLQWSSLKASDTAMYYCARQEITGDFDYWGQGTLVTVSS
VL: AIQLTQSPSSLSASVGDRVTITCRASQGISSALAWYQQKPGKAPNLLIYAASSLESGVPSRFSGSGSGTDFTLTISSLQPEDFATYYCQQFNSYPLTFGGGTKVEIK
notes: also called TH1016-096; PC1016-096
- Kd (cMetECDHis): 2.55 nM
- koff (cMetECDHis): 0.0005 s⁻¹
- kon (cMetECDHis): 196000 M⁻¹ s⁻¹
- Bottom [5]: 24800 RFU
- IC50 [6]: 0.0152 µg/mL

B5: IgG4-058 (antibody, V domains shown)
VH: EVQLVESGGGLVKPGGSLKLSCAASGFTFSDYYMYWVRQTPEKRLEWVATISDDGSYTYYPDSVKGRFTISRDNAKNNLYLQMSSLKSEDTAMYYCAREGLYYYGSGSYYNQDYWGQGTLVTVSS
VL: AIQLTQSPSSLSASVGDRVTITCRASQGLSSALAWYRQKPGKAPKLLIYDASSLESGVPSRFSGSGSGTDFTLTISSLQPEDFATYYCQQFTSYPQITFGQGTRLEIK
notes: IgG4 format of clone 058; also called IgG4-1016-058
- EC50 [4]: 0.276 nM
